B1: 89Zr-DFO-H4H14639D (bispecific antibody, V domains shown)
VH 1: EVQLVESGGGLVQPGTSLRLSCAASGFTFDDYAMHWVRQAPGKGLEWVSGITWNSYNIDYADSVKGRFTISRDNAKNSLYLQMNSLRAEDTALYYCAKDDDYSNYVYFDYWGQGTLVTVSS
VH 2: EVQLVESGGGLVQPGGSLRLSCAASGFIVTTNYMTWLRQAPGKGLEWVSLIYSSGHTYYADSVKGRFTISRHNSKNTLYLQMDSLRAEDTAVYYCASAFAADVFDIWGQGTMVTVSS
VL: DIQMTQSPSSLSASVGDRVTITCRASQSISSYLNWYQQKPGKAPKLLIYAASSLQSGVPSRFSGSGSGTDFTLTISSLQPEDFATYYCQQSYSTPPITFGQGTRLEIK
modifications: p-SCN-Bn-DFO on primary amines (sites not given), chelating 89Zr
notes: also called DFO-Ab radioimmunoconjugate; 89Zr-DFO-MET x MET bispecific antibody conjugate
B2: DFO-H4H14639D immunoconjugate (DAR 1.26) (bispecific antibody, V domains shown)
VH 1: B1 VH 1
VH 2: B1 VH 2
VL: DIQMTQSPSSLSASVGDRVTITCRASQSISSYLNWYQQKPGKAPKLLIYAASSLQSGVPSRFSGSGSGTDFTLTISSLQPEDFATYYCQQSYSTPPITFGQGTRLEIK
modifications: p-SCN-Bn-DFO on primary amines, sites not stated; average DAR 1.26 per antibody
notes: also called DFO-Ab immunoconjugate; DFO-MET x MET immunoconjugate

How the values were obtained:
[1] = target: T1, human MET on EBC-1, NCI-H441 and NCI-H358 cells (human, UniProt P08581 25-1390); assay: saturation radioligand binding (antibody binding capacity) assay with 89Zr-DFO-H4H14639D on EBC-1 cells, 4 C, 45 min, gamma counting; x axis is total antibody dosed, not free
T1 construct: whole, on cells; also called Met receptor; c-Met
T1 sequence (P08581 25-1390): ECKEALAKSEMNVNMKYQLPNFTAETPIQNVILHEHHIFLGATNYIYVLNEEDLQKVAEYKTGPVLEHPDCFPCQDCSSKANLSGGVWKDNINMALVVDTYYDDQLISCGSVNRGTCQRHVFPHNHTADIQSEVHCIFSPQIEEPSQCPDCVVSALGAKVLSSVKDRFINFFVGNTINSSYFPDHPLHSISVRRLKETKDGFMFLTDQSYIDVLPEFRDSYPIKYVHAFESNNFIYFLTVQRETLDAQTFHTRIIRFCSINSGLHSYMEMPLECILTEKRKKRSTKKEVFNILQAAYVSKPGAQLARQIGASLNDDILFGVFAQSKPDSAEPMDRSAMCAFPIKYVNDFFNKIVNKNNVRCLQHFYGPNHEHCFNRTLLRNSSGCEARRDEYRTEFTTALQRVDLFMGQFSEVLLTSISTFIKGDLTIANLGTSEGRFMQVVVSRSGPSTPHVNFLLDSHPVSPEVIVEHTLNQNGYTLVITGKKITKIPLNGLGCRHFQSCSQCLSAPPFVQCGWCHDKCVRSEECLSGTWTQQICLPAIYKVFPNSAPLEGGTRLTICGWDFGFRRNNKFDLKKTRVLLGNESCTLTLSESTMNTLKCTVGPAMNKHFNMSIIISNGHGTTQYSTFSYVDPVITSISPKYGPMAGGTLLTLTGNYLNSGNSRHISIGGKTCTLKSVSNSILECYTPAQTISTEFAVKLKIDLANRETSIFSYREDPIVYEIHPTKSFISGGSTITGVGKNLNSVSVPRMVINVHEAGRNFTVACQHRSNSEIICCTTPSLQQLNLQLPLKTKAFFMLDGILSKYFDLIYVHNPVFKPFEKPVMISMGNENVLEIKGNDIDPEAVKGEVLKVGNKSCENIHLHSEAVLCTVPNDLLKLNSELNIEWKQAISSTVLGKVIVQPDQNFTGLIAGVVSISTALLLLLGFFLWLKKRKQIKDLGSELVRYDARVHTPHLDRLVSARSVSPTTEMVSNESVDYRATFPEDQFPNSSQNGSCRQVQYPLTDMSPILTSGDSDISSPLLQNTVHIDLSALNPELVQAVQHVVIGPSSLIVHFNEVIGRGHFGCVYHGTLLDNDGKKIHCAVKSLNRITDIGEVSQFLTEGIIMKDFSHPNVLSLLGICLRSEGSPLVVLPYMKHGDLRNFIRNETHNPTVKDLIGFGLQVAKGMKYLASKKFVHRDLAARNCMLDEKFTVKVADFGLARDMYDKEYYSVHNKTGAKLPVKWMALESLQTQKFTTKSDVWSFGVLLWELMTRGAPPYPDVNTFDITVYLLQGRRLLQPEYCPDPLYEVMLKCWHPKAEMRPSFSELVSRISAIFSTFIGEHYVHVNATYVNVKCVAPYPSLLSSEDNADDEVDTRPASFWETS
Method: (§1) This wash process was repeated two more times, before resuspending cells in 200 μL of cold buffer (10% FBS in PBS, v/v). Of the 200 μL, 180 μL from each well was collected and dispensed into flip-cap tubes, representing the cell-bound antibody. […] A calibration curve was generated from the total antibody dosed samples using counts detected vs total antibody dosed per well, T, based on the dilution series starting from the initial antibody concentration (divided by five because of sampling). The calibration curve was used to convert the bound fraction counts (multiplied by […] because of sampling) to mass (or concentration) of bound antibody, B.
(§2) The radioligand internalization was also assayed at the highest dosed concentration at 4° C. for the 45 minutes. […] Activity of cell pellets, stripping supernatants, and wash supernatants were measured using a gamma counter. The fraction internalized, I, was calculated as the ratio of activity of the cell pellet over sum of the total activity of the cell pellet, stripping supernatant and wash supernatants.
(§3) Because there are multiple binding formats for H4H14639D, the data set was fit by the Hill-Langmuir equation (equation 3). The ABC was then calculated using equation 2. Non-specific binding was determined to be a negligible component for all runs was not considered as part of the analysis. […]

[2] = target: T1, human MET on EBC-1, NCI-H441 and …; assay: saturation radioligand binding (antibody binding capacity) assay with 89Zr-DFO-H4H14639D on NCI-H441 cells, 4 C, 45 min, gamma counting; x axis is total antibody dosed, not free
Method: as §1, §2, §3

[3] = target: MET ('target' in the SPR assay of Example 2; construct not stated) (UniProt P08581 25-932, limits assumed); assay: SPR, Biacore 8k
MET ('target' in the SPR assay of Example 2; construct not stated), sequence (P08581 25-932 limits assumed): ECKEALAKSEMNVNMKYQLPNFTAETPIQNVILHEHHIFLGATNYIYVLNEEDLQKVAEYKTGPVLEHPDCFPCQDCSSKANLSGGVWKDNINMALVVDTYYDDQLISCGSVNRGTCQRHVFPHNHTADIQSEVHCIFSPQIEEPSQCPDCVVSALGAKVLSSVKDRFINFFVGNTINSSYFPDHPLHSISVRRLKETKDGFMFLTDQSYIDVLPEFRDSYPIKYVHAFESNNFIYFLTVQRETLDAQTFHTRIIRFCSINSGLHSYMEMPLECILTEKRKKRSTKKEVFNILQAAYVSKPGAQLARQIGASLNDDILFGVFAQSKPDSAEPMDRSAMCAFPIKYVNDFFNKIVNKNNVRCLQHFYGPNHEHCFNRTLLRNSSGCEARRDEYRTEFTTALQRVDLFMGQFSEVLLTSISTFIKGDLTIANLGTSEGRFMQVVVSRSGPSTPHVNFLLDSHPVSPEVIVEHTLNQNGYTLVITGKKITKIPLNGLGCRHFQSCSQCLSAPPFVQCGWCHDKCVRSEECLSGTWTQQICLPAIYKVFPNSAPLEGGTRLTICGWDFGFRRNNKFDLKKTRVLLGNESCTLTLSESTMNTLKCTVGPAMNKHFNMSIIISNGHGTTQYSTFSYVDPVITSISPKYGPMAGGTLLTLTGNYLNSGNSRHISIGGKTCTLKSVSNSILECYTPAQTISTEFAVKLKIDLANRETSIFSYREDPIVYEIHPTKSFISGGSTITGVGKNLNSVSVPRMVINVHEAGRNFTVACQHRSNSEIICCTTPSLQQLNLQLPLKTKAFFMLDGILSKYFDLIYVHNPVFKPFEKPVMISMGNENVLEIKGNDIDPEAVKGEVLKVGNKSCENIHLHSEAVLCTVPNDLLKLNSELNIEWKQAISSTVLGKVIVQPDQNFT

Binder	EC50 (read off the curve) [1] [nM]	EC50 (read off the curve) [2] [nM]	KD relative to the KD of the unconjugated bispecific antibody [3] [%]
B1	~3	~2	
B2			≤ 10
